In patent publication US20210187091A1 (published 2021):
Read-outs that look alike come from different tables or passages of the source.

T1: Man9-V3 glycopeptide (Man9GlcNAc2 at N301 and at N332; disulfide bridge between C296 and C331 (cyclized); biotin tag)
T1 peptide: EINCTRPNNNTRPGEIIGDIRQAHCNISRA


Legend:
Man9-V3 glycopeptide [1] = target: T1, Man9-V3 glycopeptide; assay: BLI
Man9-V3 glycopeptide [2] = target: T1, Man9-V3 glycopeptide; assay: BLI

Binder | Kd (Man9-V3 glycopeptide [1]) [µM] | Kd (Man9-V3 glycopeptide [2]) [µM]
DH270.IA1 (antibody, V domains shown) VH: QVQLVQSGAEVKKPGASVKVSCKASGYTFTDYYIHWVRQAPGQGLEWMGWINPNTGRTNYAQKFQGRVIMTRDTSISTAYMELSRLRSDDTAVYYCARGGWIGLYYDSSGYPNFDYWGQGTLVTVSS VL: QSALTQPASVSGSPGQSITISCTGTSYDVGSYNLVSWYQQHPGKAPKLMIYEVSKRPSGVSNRFSGSKSGNTASLTISGLQAEDEADYYCCSYAGSSTVIFGGGTKLTVL | 3.29 | 
DH270.2 (antibody, V domains shown) VH: QVQLVQSGAEMKKPGASVRVSCKASGYTFTDYYIHWVRQAPGQGPEWMGWINPSTGRTNSPQKFQGRVIMTRDTSISTAYMDLNRLTSDDTAMYYCTTGGWIGLYSDTSGYPNFDYWGQGTLVTVSS VL: QSALTQPASVSGSPGQSITISCTGTNYDVGSYNLVSWYQQHPGKVPKYIIYEVNKRPSGVSNRFSGSKSGNTASLTISGLQAEDEADYYCCSYAGSSIIFFGGGTKLTVI |  | 4.77
DH270.5 (antibody, V domains shown) VH: QVQLVQSGAEVKNPGASVKVSCAPSGYTFTDFYIHWVRLAPGQGLEWLGWMNPKTGRTNQGQNFQGRVIMTRDTSIGTAYMELRSLTSDDTAVYYCVTGAWISDYYDSSYYPNFDHWGQGTLVTVSS VL: LPVLTQPASVSGSPGQSITISCTGTIYDVGKFDLVSWYQHHPGKAPKYLIYEVKKWPSGVSHRFSGSKSGNTASLTISGLQVEDEADYYCCSFGGSAAVVCGGGTKVTVL |  | 0.281
DH270.3 (antibody, V domains shown) VH: QVQLVQSGAEMKNPGASVKVSCAASGYTFTDFYIHWVRLAPGQGLEWMGWMNPKTGRTNNAQNFQGRVIMTRDTSIGTAYMELRRLTSDDTAVYYCVTGGWISPYYDSSYYPNFDHWGQGTLVTVSS VL: QSALTQPASVSGSPGQSITISCTGTSYDVGKFDLVSWYQQHPGKAPKYMIYEVNKWPSGVSHRFSGSKSGNTASLTISGLQAEDEADYYCCSFGGSATVVCGGGTKVTVL |  | 0.195
DH270.4 (antibody, V domains shown) VH: EVQLVQSGAEMKNPGASVKVSCAASGYGFTDFYIHWVRLAPGHGLQWMGWMNPKTGRTNNAQDFQGRVILTRDTSIGTAYMELRRLTSDDTAVYYCVTGGWISPYYDSSYYPNFDHWGQGTLITVSS VL: QSALTQPASVSGSPGQSITISCTGTSYDVAKFDLVSWFQQHPGKAPKYMIYEVNKWPSGVSHRFSGSKSGNTASLTISGLQAEDEADYYCCSFGGSATVVCGGGTKVTVL |  | 0.346
